Consider three substances from patent US12173330B2, “Method for producing hydroxy-L-pipecolic acid” (API CORPORATION, priority 2015, dated 2024).

One data set has as its system O=C(O)[C@@H]1CCCCN1. Briefly: purified protein, by the assay type.
A further data set deals with O=C(O)[C@@H]1CCCN1. Briefly: purified protein, by the assay type. Conditions: other: substrate: L-proline, 20 mmol/L 2-oxoglutaric acid, 30° C.
Setting [1] is: other: substrate: L-pipecolic acid, 20 mmol/L 2-oxoglutaric acid, 30° C.

As to “Colletotrichum gloeosporioides Nara qc5 L-pipecolic acid trans-4-hydroxylase CgPH, SEQ ID NO: 12 (Colletotrichum fructicola Nara gc5)”, the Km – broadly, the concentration of substrate that gives half-maximal velocity – with O=C(O)[C@@H]1CCCCN1 (setting [1]) came to 8560 µM.
On to “Gibberella zeae PH-1 L-pipecolic acid trans-4-hydroxylase GzPH, SEQ ID NO: 16 (Fusarium graminearum PH-1)”, for which, in the data set with O=C(O)[C@@H]1CCCCN1 (30.0 °C), the Km amounted to 4720 µM.
For “Segniliparus rugosus ATCC BAA-974 L-pipecolic acid cis-5-hydroxylase SruPH, SEQ ID NO: 4 (Segniliparus rugosus ATCC BAA-974)”, the Km with O=C(O)[C@@H]1CCCN1 is 400 µM; in the data set with O=C(O)[C@@H]1CCCCN1 (setting [1]), 1090 µM.
